Patent US20250333441A1, “POLYPEPTIDE INHIBITORS AND USES THEREOF” (Neuracle Science Co., Ltd., priority 2021, published 2025)

What was measured:
[1] = biological target: T1, FAM19A5 protein (Homo sapiens, UniProt Q7Z5A7); assay: ELISA binding of recombinant FAM19A5 to coated LRRC4 family ectodomains, fragments and FB peptides; conditions: coated protein or peptide, FAM19A5 up to 10 nM
Experimental: Next, to confirm the above co-immunoprecipitation results, an ELISA assay was used to measure the binding of the FAM19A5 protein to either the full-length ectodomain of members of LRRC4 protein family or various LRRC4B ectodomain protein fragments. Specifically, an ELISA plate was coated with one of the following LRRC4B ectodomain protein, which was conjugated to human Fc (100 nM/well): (1) full-length ectodomain of LRRC4 protein (amino acid residues 39-527 of SEQ ID NO: 1) (SEQ ID NO: 4); (2) full-length ectodomain of LRRC4B protein (amino acids 36-576 of SEQ ID NO: 2; i.e., construct #7 in Table 6) (SEQ ID NO: 5); (3) full-length ectodomain of LRRC4C protein (amino acids 45-527 of SEQ ID NO: 3) (SEQ ID NO: 6); (4) LRRC4B ectodomain fragment (amino acids 453-576 of SEQ ID NO: 2; i.e., construct #11 in Table 6) (SEQ ID NO: 7); (5) LRRC4B ectodomain fragment (amino acids 484-576 of SEQ ID NO: 2; i.e., construct #12 in Table 6) (SEQ ID NO: 8); (6) LRRC4B ectodomain fragment (amino acids 482-576 of SEQ ID NO: 2) (SEQ ID NO: 9); (7) LRRC4B ectodomain fragment (amino acids 482-497 of SEQ ID NO: 2) (SEQ ID NO: 10); and (8) LRRC4B ectodomain fragment (amino acids 498-576 of SEQ ID NO: 2; i.e., construct #13 in Table 6) (SEQ ID NO: 11). Then, recombinant FAM19A5 proteins (0.005, 0.01, 0.025, 0.05, 0.1, 0.25, 0.5, 1, 2.5, 5, and 10 nM) were added to the relevant wells, and the plates were incubated at 37° C. for 1 hour. Afterwards, the amount of LRRC4B-bound FAM19A5 protein was detected using […] anti-FAM19A5 (1-65) antibody.
As further confirmation, three synthetic polypeptides comprising amino acids 484-497 of SEQ ID NO: 2 (i.e., YTYFTTVTVETLET; SEQ ID NO: 65) were constructed: (1) FB-16 (GYTYFTTVTVETLETQ; SEQ ID NO: 17), (2) FB-20 ([…]; SEQ ID NO: 18), and (3) FB-28 ([…]; SEQ ID NO: 19). The peptides differed in their total length. The ability of these polypeptides to bind to recombinant FAM19A5 protein was assessed using an ELISA assay as described above.
Target sequence in this assay (Q7Z5A7 44-132): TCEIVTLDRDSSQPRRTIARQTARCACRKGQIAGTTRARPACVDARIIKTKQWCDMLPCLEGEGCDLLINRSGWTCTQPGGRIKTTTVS

[2] = biological target: binding of FAM19A5 protein to full-length ectodomain of LRRC4 protein (Homo sapiens, UniProt Q7Z5A7); assay: Competitive inhibition assay, plate coated with full-length LRRC4 ectodomain; conditions: 100 nM/well coated full-length LRRC4 ectodomain; FAM19A5 5 ng/mL
binding of FAM19A5 protein to full-length ectodomain of LRRC4 protein, sequence (Q7Z5A7 44-132): as above
Experimental: (§1) As described in Example 3, there appeared to be much similarity in the binding domains of the different members of the LRRC4 family. […] Then, recombinant FAM19A5 protein (5 ng/mL) was added in combination with one of the following: (i) LRRC4B (484-576) protein fragment, (ii) LRRC4B (453-576, AA) protein fragment, and (iii) synthetic FB-20 peptide. The plates were incubated at 37° C., and then, the amount of FAM19A5 protein bound to the coated LRRC4, LRRC4B, or LRRC4C proteins was measured using anti-FAM19A5 (1-65) antibody.

[3] = system: mouse primary cortical neurons; assay: Neurite growth of primary cortical neurons (beta-tubulin III immunostaining); type: cell-based; conditions: FB peptides; treated for two days, assessed at day 3
Experimental: Next, primary cortical neurons (day 1 postnatal) were cultured in vitro with varying concentrations (0.006 to 60 nM) of the LRRC4B (453-576) protein fragment (i.e., amino acid residues 453-576 of SEQ ID NO: 2; SEQ ID NO: 7), and then at day 3 post-initial culture, the effect on neurite growth was assessed by immunostaining the cells with anti-beta-tubulin III antibody. Cells cultured with DMSO (“Veh”) were used as control.
Mouse hippocampal neurons were treated with LRRC4B peptides at 1 and 2 DIV to determine neurite growth. It was measured by using 3 different parameters, which are total neurites length, number of primary and secondary neurites. After the neurons were stained with beta-tubulin III at 3 DIV, neurites length and branch points were measured using Fiji (Image J, NIH, Bethesda). Individual neurons were selected by hand and these parameters were counted using the Simple neurite tracer plugin. Mouse spinal motor neurons sampled at postnatal day 1 were treated with 10 nM of NS101 and LRRC4B-peptides (dFB-dWY-JM31 and dFB-DY-JM31) at 1 and 2 DIV and immunostained with Tau-5 antibody at 3 DIV. Total neurite length and number of somas in images were measured by Neurphology Image J plugin.

[4] = biological target: binding of FAM19A5 protein to full-length ectodomain of LRRC4C protein (Homo sapiens, UniProt Q7Z5A7); assay: Competitive inhibition assay, plate coated with full-length LRRC4C ectodomain; conditions: 100 nM/well coated full-length LRRC4C ectodomain; FAM19A5 5 ng/mL
binding of FAM19A5 protein to full-length ectodomain of LRRC4C protein, sequence (Q7Z5A7 44-132): as above
Experimental: as §1

[5] = biological target: binding of FAM19A5 protein to full-length ectodomain of the LRRC4B protein (amino acids 36-576)-hFc (Homo sapiens, UniProt Q7Z5A7); assay: Competitive inhibition assay, plate coated with full-length LRRC4B ectodomain; conditions: 100 nM coated ectodomain; FAM19A5 5 ng/mL; increasing concentrations
binding of FAM19A5 protein to full-length ectodomain of the LRRC4B protein (amino acids 36-576)-hFc, sequence (Q7Z5A7 44-132): as above
Experimental: Next, to further assess the role that the binding domain of the LRRC4B protein has on the interaction between FAM19A5 protein and members of the LRRC4 protein family, a competitive inhibition assay was used to determine whether different LRRC4B deletion constructs from Example 2 could inhibit the binding of FAM19A5 to the full-length ectodomain of the LRRC4B protein (i.e., amino acids 36-576 of SEQ ID NO: 2; SEQ ID NO: 5). Briefly, 100 nM of the full-length ectodomain of the LRRC4B protein was used to coat a plate, and then recombinant FAM19A5 protein (5 ng/mL) was added to the plate in combination with the following LRRC4B deletion constructs (increasing concentrations): (1) LRRC4B (453-576) (i.e., construct #11 in Table 6); (2) LRRC4B (453-576) mutant (comprises alanine substitutions at positions 488 and 489 of SEQ ID NO: 2; SEQ ID NO: 16); (3) LRRC4B (484-576) (i.e., construct #12 in Table 6); (4) LRRC4B (482-576); (5) LRRC4B (482-497); and (6) LRRC4B (498-576). The plates were incubated at 37° C., and then, the amount of FAM19A5 bound to the coated LRRC4B ectodomain protein was measured using H1RP-conjugated anti-FAM19A5 (1-65) antibody. […]

[6] = biological target: T2, FAM19A5 (isoform 2) - full-length LRRC4B protein complex (Homo sapiens, UniProt Q7Z5A7); assay: Immunofluorescence: dissociation of FAM19A5 from full-length LRRC4B in HEK293 cells; type: cell-based; conditions: HEK293 cells expressing FAM19A5 isoform 2 and LRRC4B, treated 30 minutes
T2 construct: expressed in transfected cells; host or cells: HEK293
T2 sequence (Q7Z5A7 1-125 isoform Q7Z5A7-2, one chain of several): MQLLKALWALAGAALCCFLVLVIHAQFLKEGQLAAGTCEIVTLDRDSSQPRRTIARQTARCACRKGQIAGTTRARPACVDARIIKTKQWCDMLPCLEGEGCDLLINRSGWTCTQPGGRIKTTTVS
Experimental: Since LRRC4B protein fragments containing the binding domain described in Example 2 (e.g., LRRC4B (453-576); i.e., construct #11 in Table 6) was able to bind to FAM19A5 protein with high affinity, it was next assessed whether such protein fragments could compete with naturally existing LRRC4B protein for binding to FAM19A5 protein, and thereby, dissociate the FAM19A5-LRRC4 protein family complex. Briefly, HEK293 cells expressing both FAM19A5 isoform 2 and LRRC4B protein were treated (i.e., cultured in vitro) for 30 minutes with either LRRC4B (453-576)-hFc or mutant LRRC4B (453-576)-hFc (includes alanine substitutions at positions 488 and 489 of SEQ ID NO: 2; SEQ ID NO: 16) protein fragments. Then, the cells were immunostained with anti-FAM19A5 (1-65) and anti-LRRC4B antibodies to determine the expression of FAM19A5 and full-length LRRC4B proteins, respectively. The hFc-fused LRRC4B protein fragments were determined using an anti-hIgG antibody. The nuclei were stained with Hoechst 33342.

[7] = biological target: T1, FAM19A5 protein; assay: Co-immunoprecipitation of FLAG-tagged LRRC4 family constructs with recombinant FAM19A5 in HEK293 cells; type: binding; conditions: HEK293 cells expressing FLAG-tagged construct, recombinant FAM19A5 protein (1 μM) 30 minutes; anti-FLAG immunoprecipitation
Experimental: To better understand the interaction between FAM19A5 and members of the LRRC4 protein family, HEK293 cells were modified to express a FLAG-tagged member of the LRRC4 protein family, i.e., LRRC4C protein, LRRC4 protein, or LRRC4B protein. Then, the HEK293 cells or primary cortical neurons were treated with recombinant FAM19A5 protein (1 μM) for 30 minutes, and the binding between FAM19A5 protein and the different members of the LRRC4 protein family was assessed using both co-immunoprecipitation and immunofluorescence assays.
For the co-immunoprecipitation assay, cell lysates from the different FAM19A5-treated HEK293 cells were collected and immunoprecipitated with an anti-FLAG antibody, anti-FAM19A5 (1-65) antibody, or a human IgG antibody (control). Immunoprecipitated proteins were immunoblotted with anti-FLAG and anti-FAM19A5 (3-2) antibodies. For the immunofluorescence assay, the HEK293 cells treated with the recombinant FAM19A5 protein were immunostained with anti-FAM19A5 (3-2) (to detect FAM19A5 protein expression) and anti-FLAG antibodies (to detect member of the LRRC4 protein family). The primary cortical neurons treated with the recombinant FAM19A5 protein were immunostained with anti-FAM19A5 (3-2) and anti-LRRC4B antibodies. The nuclei were stained with Hoechst33342 (blue).
To determine the specific motif or domain of the LRRC4B protein that is responsible for the binding to a FAM19A5 protein, various FLAG-tagged LRRC4B deletion constructs were generated (see Table 6 below). HEK293 cells were transfected with the different deletion constructs and then treated with recombinant FAM19A5 protein as described in Example 1. Then, the cell lysates from the different HEK293 cells were immunoprecipitated with the anti-FLAG antibody. The immunoprecipitated proteins were immunoblotted with anti-FLAG and anti-FAM19A5 (3-2) antibodies.
As described in Example 2, all members of the LRRC4 protein family were capable of binding to FAM19A5 protein to varying degrees. Therefore, to compare the bindings domains, the amino acid sequences of the LRRC4B, LRRC4, and LRRC4C proteins were aligned. […] Therefore, to assess whether the corresponding positions of LRRC4 and LRRC4C were important in the binding of these proteins to FAM19A5 protein, cDNAs encoding either (i) LRRC4C protein fragment (amino acids 354-527 of SEQ ID NO: 3; SEQ ID NO: 66) or (ii) LRRC4 protein fragment (amino acids 353-527 of SEQ ID NO: 1; SEQ ID NO: 67) were constructed (see Table 7). HEK293 cells were transfected to express either of the protein fragments and then treated with recombinant FAM19A5 protein as described in Example 1. Then, the cell lysates from the different HEK293 cells were immunoprecipitated with the anti-FLAG antibody. The immunoprecipitated proteins were immunoblotted with anti-FLAG and anti-FAM19A5 (3-2) antibodies.
Target sequence in this assay (Q7Z5A7 44-132): as the sequence (Q7Z5A7 44-132) above

[8] = biological target: T1, FAM19A5 protein; assay: competitive inhibition ELISA; competitor: coated LRRC4B(453-576, TT/TT)-hFc

Row | Molecule | binding to FAM19A5 protein (ELISA) [1] | inhibition of FAM19A5 binding to coated LRRC4 protein [2] | neurite outgrowth [3] | inhibition of FAM19A5 binding to coated LRRC4C protein [4] | inhibition of FAM19A5 binding to coated full-length LRRC4B ectodomain protein [5] | dissociation of FAM19A5 from full-length LRRC4B protein [6] | binding to FAM19A5 protein (co-immunoprecipitation) [7] | fold increase in ability to dissociate the LRRC4B-FAM19A5 complex, against wild-type FB-21 [8] [fold]
1 | GYTYFTTVTVETLETQPGEE [FB-20] | high affinity | able to inhibit FAM19A5 protein from binding | Increased neurite outgrowth | able to inhibit FAM19A5 protein from binding |  |  |  | 
2 | LRRC4B mutant: LRRC4B (453-576) with alanine substitutions at positions 488 and 489 of SEQ ID NO: 2 (SEQ ID NO: 16) (protein, human Fc fusion in use) VSAVDPVAAGGTGSGGGGPGGSGGVGGGSGGYTYFAAVTVETLETQPGEEALQPRGTEKEPPGPTTDGVWGGGRPGDAAGPASSSTTAPAPRSSRPTEKAFTVPITDVTENALKDLDDVMKTTK |  | minimal effect |  | minimal effect | much inferior in their ability to inhibit the interaction | FAM19A5 protein remained largely bound |  | 
3 | LRRC4B (484-576): LRRC4B fragment, amino acids 484-576 of SEQ ID NO: 2 (SEQ ID NO: 8) (protein) YTYFTTVTVETLETQPGEEALQPRGTEKEPPGPTTDGVWGGGRPGDAAGPASSSTTAPAPRSSRPTEKAFTVPITDVTENALKDLDDVMKTTK |  | able to inhibit FAM19A5 protein from binding |  | able to inhibit FAM19A5 protein from binding | able to inhibit the interaction |  | able to bind to the FAM19A5 protein | 
4 | GYTYFTTVTVEWYETQPGEEA [FB-21 (W12Y13)] |  |  |  |  |  |  |  | 2.9
